Reference: the supplement of paper PMC9112550, “Optimization of the antimicrobial peptide Bac7 by deep mutational scanning” (BMC Biology, 2022)

test system: Escherichia coli TOP10; assay: shrunken log2 fold change of peptide-encoding DNA abundance (4.5 h post-induction vs induction); higher = less antimicrobial activity (less host growth inhibition); conditions: time post-induction: 4.5 h; library: site-saturation at positions 5, 18, 19, 20
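Further: peptides expressed intracellularly from a pBAD plasmid library in pooled LB shake-flask culture, induced with 0.3% L-arabinose, DNA abundance read by NGS, three biological replicates, DESeq2 with apeglm shrinkage.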

Row | Sequence | shrunken log2 fold change
1 | RRIRGRPPRLPRPRPRPYQTPRP | 0.0825
2 | RRIRSRPPRLPRPRPRPIAVPRP | 0.22
3 | RRIRVRPPRLPRPRPRPQGGPRP | -0.0824
4 | RRIRRRPPRLPRPRPRPCFAPRP | 0.442
5 | RRIRIRPPRLPRPRPRPDEYPRP | 0.0287
6 | RRIRQRPPRLPRPRPRPRTTPRP | 0.218
7 | RRIRARPPRLPRPRPRPMPLPRP | -0.0326
8 | RRIRIRPPRLPRPRPRPHPHPRP | -0.496
9 | RRIRDRPPRLPRPRPRPIKWPRP | -0.147
10 | RRIRARPPRLPRPRPRPCKAPRP | 0.125
11 | RRIRMRPPRLPRPRPRPDPCPRP | 0.0496
12 | RRIRMRPPRLPRPRPRPPEYPRP | -0.035
13 | RRIRVRPPRLPRPRPRPSVCPRP | 0.0223
14 | RRIRCRPPRLPRPRPRPMNRPRP | -0.35
15 | RRIRRRPPRLPRPRPRPMNNPRP | -0.137
16 | RRIRERPPRLPRPRPRPTTNPRP | -0.185
17 | RRIRGRPPRLPRPRPRPIPMPRP | 0.372
18 | RRIRPRPPRLPRPRPRPDYIPRP | -1.2
19 | RRIRGRPPRLPRPRPRPVTWPRP | 0.425
20 | RRIRLRPPRLPRPRPRPQLEPRP | -0.0629
21 | RRIRGRPPRLPRPRPRPNGVPRP | -0.186
22 | RRIRMRPPRLPRPRPRPFAKPRP | 0.3
23 | RRIRDRPPRLPRPRPRPHITPRP | -0.7
24 | RRIRLRPPRLPRPRPRPKTRPRP | 0.226
25 | RRIRIRPPRLPRPRPRPYTGPRP | -0.177

Row | Sequence | shrunken log2 fold change
26 | RRIRMRPPRLPRPRPRPCAVPRP | 0.296
27 | RRIRRRPPRLPRPRPRPLDAPRP | 0.472
28 | RRIRYRPPRLPRPRPRPVHVPRP | -1.35
29 | RRIRWRPPRLPRPRPRPNFLPRP | -0.308
30 | RRIRTRPPRLPRPRPRPMVDPRP | -0.00822
31 | RRIRTRPPRLPRPRPRPLEYPRP | -0.668
32 | RRIRKRPPRLPRPRPRPPYFPRP | -0.101
33 | RRIRERPPRLPRPRPRPSWKPRP | -0.345
34 | RRIRKRPPRLPRPRPRPLAMPRP | 0.486
35 | RRIRMRPPRLPRPRPRPCDQPRP | -0.134
36 | RRIRVRPPRLPRPRPRPDHKPRP | -0.0198
37 | RRIRHRPPRLPRPRPRPWPAPRP | 0.292
38 | RRIRKRPPRLPRPRPRPVAKPRP | 3.34
39 | RRIRNRPPRLPRPRPRPCVYPRP | -0.215
40 | RRIRLRPPRLPRPRPRPSVNPRP | -0.822
41 | RRIRWRPPRLPRPRPRPESPPRP | 0.637
42 | RRIRSRPPRLPRPRPRPQKVPRP | -0.203
43 | RRIRGRPPRLPRPRPRPLRTPRP | 1.69
44 | RRIRTRPPRLPRPRPRPEYDPRP | -0.0227
45 | RRIRQRPPRLPRPRPRPPNNPRP | -0.259
46 | RRIRHRPPRLPRPRPRPYLAPRP | -0.00514
47 | RRIRYRPPRLPRPRPRPYYTPRP | -0.0958
48 | RRIRFRPPRLPRPRPRPHEDPRP | 0.0846
49 | RRIRSRPPRLPRPRPRPTYMPRP | -0.55
50 | RRIRFRPPRLPRPRPRPALDPRP | 0.436

Row | Sequence | shrunken log2 fold change
51 | RRIRVRPPRLPRPRPRPYPHPRP | -0.342
52 | RRIRERPPRLPRPRPRPDWMPRP | 0.0111
53 | RRIRFRPPRLPRPRPRPRIAPRP | 0.214
54 | RRIRQRPPRLPRPRPRPTEMPRP | -0.149
55 | RRIRLRPPRLPRPRPRPSSVPRP | 0.0713
56 | RRIRQRPPRLPRPRPRPRGRPRP | 0.256
57 | RRIRSRPPRLPRPRPRPWLYPRP | -0.652
58 | RRIRVRPPRLPRPRPRPCCMPRP | -0.181
59 | RRIRYRPPRLPRPRPRPFTVPRP | -0.177
60 | RRIRCRPPRLPRPRPRPVNMPRP | -0.179
61 | RRIRCRPPRLPRPRPRPHGPPRP | 0.0798
62 | RRIRYRPPRLPRPRPRPCTWPRP | -0.303
63 | RRIRGRPPRLPRPRPRPYPWPRP | 0.155
64 | RRIRCRPPRLPRPRPRPWYYPRP | -0.698
65 | RRIRIRPPRLPRPRPRPYTCPRP | -0.0187
66 | RRIRRRPPRLPRPRPRPVHSPRP | -0.0233
67 | RRIRGRPPRLPRPRPRPDIFPRP | 0.837
68 | RRIRYRPPRLPRPRPRPSEYPRP | -0.431
69 | RRIRVRPPRLPRPRPRPRCVPRP | 0.0659
70 | RRIRRRPPRLPRPRPRPYAPPRP | -0.0565
71 | RRIRHRPPRLPRPRPRPCCFPRP | -0.245
72 | RRIRLRPPRLPRPRPRPLLPPRP | 0.368
73 | RRIRNRPPRLPRPRPRPGWRPRP | 0.564
74 | RRIRSRPPRLPRPRPRPEMPPRP | 0.00153
75 | RRIRFRPPRLPRPRPRPKWFPRP | 0.045

Row | Sequence | shrunken log2 fold change
76 | RRIRTRPPRLPRPRPRPINKPRP | -0.322
77 | RRIRYRPPRLPRPRPRPACLPRP | -0.211
78 | RRIRFRPPRLPRPRPRPESWPRP | 0.53
79 | RRIRWRPPRLPRPRPRPNTTPRP | -0.418
80 | RRIRSRPPRLPRPRPRPRDPPRP | 0.623
81 | RRIRHRPPRLPRPRPRPKVTPRP | -0.62
82 | RRIRHRPPRLPRPRPRPWITPRP | -0.118
83 | RRIRWRPPRLPRPRPRPMTSPRP | 0.0704
84 | RRIRNRPPRLPRPRPRPSAHPRP | -0.0549
85 | RRIRTRPPRLPRPRPRPCYDPRP | -0.127
86 | RRIRWRPPRLPRPRPRPTRIPRP | 1.97
87 | RRIRYRPPRLPRPRPRPCVIPRP | 0.0735
88 | RRIRYRPPRLPRPRPRPHEQPRP | -0.0662
89 | RRIRYRPPRLPRPRPRPWYYPRP | -0.00865
90 | RRIRSRPPRLPRPRPRPLYFPRP | -0.682
91 | RRIRRRPPRLPRPRPRPPFSPRP | 0.207
92 | RRIRNRPPRLPRPRPRPGHCPRP | -0.062
93 | RRIRDRPPRLPRPRPRPDATPRP | 0.0857
94 | RRIRGRPPRLPRPRPRPLWKPRP | 0.819
95 | RRIRRRPPRLPRPRPRPTNVPRP | -0.0322
96 | RRIRIRPPRLPRPRPRPFGLPRP | -0.129
97 | RRIRSRPPRLPRPRPRPKNAPRP | 0.196
98 | RRIRDRPPRLPRPRPRPHMQPRP | -0.368
99 | RRIRPRPPRLPRPRPRPVFCPRP | -0.113
100 | RRIRLRPPRLPRPRPRPYRSPRP | -0.0017

Row | Sequence | shrunken log2 fold change
101 | RRIRGRPPRLPRPRPRPHEVPRP | 0.431
102 | RRIRFRPPRLPRPRPRPQAAPRP | 1.04
103 | RRIRARPPRLPRPRPRPVDQPRP | 0.607
104 | RRIRHRPPRLPRPRPRPSTRPRP | 0.0896
105 | RRIRHRPPRLPRPRPRPSCSPRP | -0.876
106 | RRIRSRPPRLPRPRPRPRWPPRP | 0.553
107 | RRIRARPPRLPRPRPRPCSGPRP | 0.0771
108 | RRIRPRPPRLPRPRPRPLHRPRP | -0.284
109 | RRIRIRPPRLPRPRPRPMQKPRP | 0.0387
110 | RRIRIRPPRLPRPRPRPVNKPRP | -0.426
111 | RRIRARPPRLPRPRPRPEMSPRP | 0.116
112 | RRIRHRPPRLPRPRPRPPPTPRP | 0.766
113 | RRIRWRPPRLPRPRPRPWWFPRP | 0.0217
114 | RRIRERPPRLPRPRPRPAEVPRP | -0.0184
115 | RRIRIRPPRLPRPRPRPDMSPRP | -0.00804
116 | RRIRPRPPRLPRPRPRPFTHPRP | -0.466
117 | RRIRVRPPRLPRPRPRPVGKPRP | -0.0282
118 | RRIRSRPPRLPRPRPRPHCGPRP | -0.0953
119 | RRIRFRPPRLPRPRPRPSERPRP | -0.0251
120 | RRIRVRPPRLPRPRPRPMKEPRP | -0.04
121 | RRIRCRPPRLPRPRPRPKVAPRP | -0.118
122 | RRIRYRPPRLPRPRPRPDRKPRP | -0.157
123 | RRIRFRPPRLPRPRPRPTVAPRP | 0.226
124 | RRIRKRPPRLPRPRPRPGKAPRP | -0.0571
125 | RRIRARPPRLPRPRPRPGFQPRP | 0.092
